Experimental data from PMC4132694 (Cellular signalling, 2013).

B1: GST-JNK1 (human JNK1α1) (enzyme, UniProt P45983-2 1-384, looked up)
chain: MSRSKRDNNFYSVEIGDSTFTVLKRYQNLKPIGSGAQGIVCAAYDAILERNVAIKKLSRPFQNQTHAKRAYRELVLMKCVNHKNIIGLLNVFTPQKSLEEFQDVYIVMELMDANLCQVIQMELDHERMSYLLYQMLCGIKHLHSAGIIHRDLKPSNIVVKSDCTLKILDFGLARTAGTSFMMTPYVVTRYYRAPEVILGMGYKENVDLWSVGCIMGEMVCHKILFPGRDYIDQWNKVIEQLGTPCPEFMKKLQPTVRTYVENRPKYAGYSFEKLFPDVLFPADSEHNKLKASQARDLLSKMLVIDASKRISVDEALQHPYINVWYDPSEAEAPPPKIPDKQLDEREHTIEEWKELIYKEVMDLEERTKNGVIRGQPSPLAQVQQ
B2: full-length wild-type (WT) SMTNL2 (Smoothelin-like 2), [35S]-labeled (natural protein, human, UniProt Q2TAL5-1 1-461, looked up)
chain: MEPAPDAQEARTVREALGRYEAALEGAVRALHEDMRGLQRGVERRVAEAMRLAGPLARTVADLQRDNQRLQAQLERLTRQVEALGLASGMSPVPGTPGTPSPPPAPGVPDRAPRLGSARFASHATFSLSGRGQSLDHDEASESEMRKTSNSCIMENGHQPGAGPGDGPPEIAQNFSAPDPPRPRPVSLSLRLPHQPVTAITRVSDRFSGETSAAALSPMSAATLGGLNPSPSEVITPWTPSPSEKNSSFTWSVPSSGYGAVTASKHSNSPPLVTPPQSPVSPQPPAITQVHRQGERRRELVRSQTLPRTSEAQARKALFEKWEQETAAGKGKGEARARLKRSQSFGVASASSIKQILLEWCRSKTLGYQHVDLQNFSSSWSDGMAFCALVHSFFPDAFDYNSLSPTQRQKNFELAFTMAENLANCERLIEVEDMMVMGRKPDPMCVFTYVQSLYNHLRRFE
modifications: [35S]-methionine label
B3: GST-JNK3 (human JNK3α1) (enzyme, UniProt P53779-2 1-422, looked up)
chain: MSLHFLYYCSEPTLDVKIAFCQGFDKQVDVSYIAKHYNMSKSKVDNQFYSVEVGDSTFTVLKRYQNLKPIGSGAQGIVCAAYDAVLDRNVAIKKLSRPFQNQTHAKRAYRELVLMKCVNHKNIISLLNVFTPQKTLEEFQDVYLVMELMDANLCQVIQMELDHERMSYLLYQMLCGIKHLHSAGIIHRDLKPSNIVVKSDCTLKILDFGLARTAGTSFMMTPYVVTRYYRAPEVILGMGYKENVDIWSVGCIMGEMVRHKILFPGRDYIDQWNKVIEQLGTPCPEFMKKLQPTVRNYVENRPKYAGLTFPKLFPDSLFPADSEHNKLKASQARDLLSKMLVIDPAKRISVDDALQHPYINVWYDPAEVEAPPPQIYDKQLDEREHTIEEWKELIYKEVMNSEEKTKNGVVKGQPSPSAQVQQ

What was measured:
Assay in all cases: pull-down
[1] = target: B2
GST-JNK2 (human JNK2α2) = GST-JNK2 (human JNK2α2) (human, UniProt P45984-1 1-424)
GST-JNK3 (human JNK3α1) = target: B3
GST-JNK1 (human JNK1α1) = target: B1

Kd [1]	percent of input bound (GST-JNK2 (human JNK2α2))	percent of input bound (GST-JNK3 (human JNK3α1))	percent of input bound (GST-JNK1 (human JNK1α1))	Binder
~50 µM	–	–	–	B1
–	65 % of input	50 % of input	8 % of input	B2
~4 µM	–	–	–	B3
